# Data reported in ChEMBL document CHEMBL1134320, “Structure of protein tyrosine phosphatase 1B in complex with inhibitors bearing two phosphotyrosine mimetics” (J Med Chem, 2001).
# Substrate: O=P(O)(O)c1ccc(Cc2ccc(P(=O)(O)O)cc2)cc1
# Assay: Binding affinity towards the binding site of human protein tyrosine phosphatase 1B (PTP1B) enzyme expressed in Escherichia coli cells
protein,measurement,value
"Tyrosine-protein phosphatase non-receptor type 1 (Homo sapiens), P18031 (protein) MEMEKEFEQIDKSGSWAAIYQDIRHEASDFPCRVAKLPKNKNRNRYRDVSPFDHSRIKLHQEDNDYINASLIKMEEAQRSYILTQGPLPNTCGHFWEMVWEQKSRGVVMLNRVMEKGSLKCAQYWPQKEEKEMIFEDTNLKLTLISEDIKSYYTVRQLELENLTTQETREILHFHYTTWPDFGVPESPASFLNFLFKVRESGSLSPEHGPVVVHCSAGIGRSGTFCLADTCLLLMDKRKDPSSVDIKKVLLEMRKFRMGLIQTADQLRFSYLAVIEGAKFIMGDSSVQDQWKELSHEDLEPPPEHIPPPPRPPKRILEPHNGKCREFFPNHQWVKEETQEDKDCPIKEEKGSPLNAAPYGIESMSQDTEVRSRVVGGSLRGAQAASPAKGEPSLPEKDEDHALSYWKPFLVNMCVATVLTAGAYLCYRFLFNSNT",Km,16 µM
